One data set has as its target T1, soNrtR (Shewanella oneidensis, UniProt Q8EFJ3 1-237).
T1 sequence: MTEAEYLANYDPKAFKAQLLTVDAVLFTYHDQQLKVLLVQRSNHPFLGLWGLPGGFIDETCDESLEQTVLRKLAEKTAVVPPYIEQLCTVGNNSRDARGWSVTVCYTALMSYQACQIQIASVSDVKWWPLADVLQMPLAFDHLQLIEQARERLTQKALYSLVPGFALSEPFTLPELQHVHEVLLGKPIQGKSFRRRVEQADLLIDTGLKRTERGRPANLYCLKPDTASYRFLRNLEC
The experiment in a line: X-ray crystal structure.

The data set “crystal structure” deals with the molecule itself. The data set is described as follows: crystal structure.

B1: 28-nt NrtR-box DNA (dsDNA)
DNA 1: CGTAATAGTGTCTTAAAGACACTATTAC
DNA 2: CGTAATAGTGTCTTTAAGACACTATTAC
B1: the binding result in the data set with soNrtR is on record as “binds”.

B2: N-terminal domain of soNrtR (residues 1-159) (domain or fragment, Shewanella oneidensis, UniProt Q8EFJ3 1-159, looked up)
chain: MTEAEYLANYDPKAFKAQLLTVDAVLFTYHDQQLKVLLVQRSNHPFLGLWGLPGGFIDETCDESLEQTVLRKLAEKTAVVPPYIEQLCTVGNNSRDARGWSVTVCYTALMSYQACQIQIASVSDVKWWPLADVLQMPLAFDHLQLIEQARERLTQKALY
The term stoichiometry N denotes the number of molecules, sites or subunits per partner or assembly. For the molecule B2, the “stoichiometry N” value in “crystal structure” came out at 2.

For the origin of these results see publication PMC2896262 (Structure (London, England : 1993), 2009).
